The text below walks through data of publication PMC3340446.

The target of assay [1] is Trypanosoma brucei AlkB homolog (TbABH-His6) (Trypanosoma brucei brucei (strain 427 genomic DNA)). Kind of assay: native gel or EMSA. (In general: A gel shift assay detects complexes by their altered migration in electrophoresis.)
Assay [2] shares this target. Kind of assay: SEC.

A word on the stoichiometry N: it is the number of molecules, sites or subunits per partner or assembly. With “Trypanosoma brucei AlkB homolog (TbABH-His6) (enzyme)”, the stoichiometry N is 4 in assay [1] and 2 in assay [2].
